Laboratory results from the Immune Epitope Database (IEDB).

Columns and labels:
HLA-B*15:01 [1] = assay: IEDB peptide-MHC binding, purified MHC/direct/fluorescence; filed as Kd, often an IC50 or EC50 that approximates it; ≥ and ≤ were set here for values at or beyond the usual limits of such assays
HLA-B*08:01 = assay: as above
HLA-A*11:01 = assay: as above
HLA-A*26:01 = assay: as above
HLA-A*68:02 = assay: as above; settings: source organism: Influenza A virus
HLA-B*27:05 = assay: as above
HLA-A*31:01 = assay: as above
HLA-B*57:01 [2] = assay: as above; settings: source organism: Influenza A virus
HLA-B*07:02 = assay: as above
HLA-B*40:01 = assay: as above
HLA-A*24:03 = assay: as above
HLA-A*23:01 = assay: as above; settings: source organism: Influenza A virus
HLA-A*02:01 = assay: as above
HLA-B*44:02 = assay: as above
HLA-A*69:01 = assay: as above
HLA-B*46:01 = assay: as above
HLA-A*24:02 = assay: as above
HLA-A*01:01 [3] = assay: as above
HLA-B*58:01 = assay: as above
HLA-A*03:01 = assay: as above
HLA-A*26:02 = assay: IEDB peptide-MHC binding, purified MHC/competitive/fluorescence; filed as Kd, often an IC50 or EC50 that approximates it; ≥ and ≤ were set here for values at or beyond the usual limits of such assays
HLA-B*15:17 = assay: as above
HLA-B*18:01 [4] = assay: as above
HLA-C*05:01 = assay: IEDB peptide-MHC binding, purified MHC/direct/fluorescence; filed as Kd, often an IC50 or EC50 that approximates it; ≥ and ≤ were set here for values at or beyond the usual limits of such assays
HLA-B*15:01 [5] = assay: IEDB peptide-MHC binding, purified MHC/competitive/fluorescence; filed as Kd, often an IC50 or EC50 that approximates it; ≥ and ≤ were set here for values at or beyond the usual limits of such assays; settings: source organism: Human immunodeficiency virus 1
HLA-A*02:03 = assay: as above
HLA-B*57:01 [6] = assay: as above; settings: source organism: Human immunodeficiency virus 1
HLA-A*30:01 = assay: as above; settings: source organism: Human immunodeficiency virus 1
HLA-A*01:01 [7] = assay: as above; settings: source organism: Human immunodeficiency virus 1
HLA-A*02:06 = assay: as above
HLA-B*18:01 [8] = assay: IEDB peptide-MHC binding, purified MHC/direct/fluorescence; filed as Kd, often an IC50 or EC50 that approximates it; ≥ and ≤ were set here for values at or beyond the usual limits of such assays; settings: source organism: Influenza A virus (A/Viet Nam/HN/2004(H5N1))
HLA-B*08:02 = assay: as above
HLA-A*02:12 = assay: IEDB peptide-MHC binding, purified MHC/competitive/fluorescence; filed as Kd, often an IC50 or EC50 that approximates it; ≥ and ≤ were set here for values at or beyond the usual limits of such assays; settings: source organism: Pasteurella multocida subsp. multocida str. Pm70
HLA-A*02:11 [9] = assay: as above; settings: source organism: Pasteurella multocida subsp. multocida str. Pm70
HLA-B*15:09 = assay: IEDB peptide-MHC binding, purified MHC/direct/fluorescence; filed as Kd, often an IC50 or EC50 that approximates it; ≥ and ≤ were set here for values at or beyond the usual limits of such assays
HLA-A*02:11 [10] = assay: as above; settings: source organism: Bacillus cereus NVH0597-99
HLA-B*39:01 = assay: as above; settings: source organism: Bacillus cereus NVH0597-99
[11] = source organism: Influenza A virus (A/Puerto Rico/8/34/Mount Sinai(H1N1))
[12] = source organism: Influenza A virus
[13] = source organism: Influenza A virus (A/tiger/Thailand/CU-LV/2004(H5N1))
[14] = source organism: Influenza A virus (A/ruddy turnstone/NJ/60/1985(N9))
[15] = source organism: Human immunodeficiency virus 1
[16] = source organism: Influenza A virus (A/Viet Nam/HN/2004(H5N1))
[17] = source organism: Influenza A virus(A/swine/Henan/3/2004(H9N2))
[18] = source organism: Pasteurella multocida
[19] = source organism: Pasteurella multocida subsp. multocida str. Pm70
[20] = source organism: Influenza A virus (A/equine/New York/1/1999(H3N8))
[21] = source organism: Influenza A virus(A/swine/Shandong/fNY/2003(H9N2))
[22] = source organism: H9N2 subtype Influenza A virus (A/swine/Korea/S81/2004(H9N2))

DWSGYSGSF
Kd (HLA-B*15:01 [1]; [11]): ≥ 10 µM
Kd (HLA-B*08:01; [12]): ≥ 20 µM
Kd (HLA-A*11:01; [12]): ≥ 20 µM
Kd (HLA-A*26:01; [13]): ≥ 20 µM
Kd (HLA-A*68:02): ≥ 20 µM
Kd (HLA-B*27:05; [12]): ≥ 20 µM
Kd (HLA-A*31:01; [12]): ≥ 20 µM
Kd (HLA-B*57:01 [2]): ≥ 20 µM
Kd (HLA-B*07:02; [12]): ≥ 20 µM
Kd (HLA-B*40:01; [12]): ≥ 20 µM
Kd (HLA-A*24:03; [13]): 0.072 µM
Kd (HLA-A*23:01): 0.175 µM
Kd (HLA-A*02:01; [12]): ≥ 20 µM
Kd (HLA-B*44:02; [12]): ≥ 20 µM
Kd (HLA-A*69:01; [12]): ≥ 20 µM
Kd (HLA-B*46:01; [12]): ≥ 20 µM
Kd (HLA-A*24:02; [12]): 0.0875 µM
Kd (HLA-A*01:01 [3]; [12]): ≥ 20 µM
Kd (HLA-B*58:01; [12]): ≥ 20 µM
Kd (HLA-A*03:01; [12]): ≥ 20 µM
Kd (HLA-A*26:02; [14]): 3.45 µM
Kd (HLA-B*15:17; [14]): 1.24 µM
Kd (HLA-B*18:01 [4]; [14]): ≥ 20 µM

FFNVEIPEF
Kd (HLA-C*05:01; source organism: human gammaherpesvirus 4): ≥ 20 µM

RSLYNTIATLY
Kd (HLA-B*15:01 [5]): 0.103 µM
Kd (HLA-A*02:03; [15]): 0.722 µM
Kd (HLA-A*26:02; [15]): 0.921 µM
Kd (HLA-B*57:01 [6]): 0.128 µM
Kd (HLA-A*30:01): ≥ 20 µM
Kd (HLA-B*15:17; [15]): 0.0007 µM
Kd (HLA-A*01:01 [7]): 1.65 µM
Kd (HLA-B*18:01 [4]; [15]): 0.119 µM
Kd (HLA-A*02:06; [15]): ≥ 20 µM

RRVRDNMTK
Kd (HLA-B*15:01 [1]; [16]): ≥ 20 µM
Kd (HLA-B*08:01; [16]): ≥ 20 µM
Kd (HLA-A*11:01; [16]): ≥ 20 µM
Kd (HLA-A*26:01; [17]): ≥ 20 µM
Kd (HLA-B*27:05; [11]): 0.45 µM
Kd (HLA-B*07:02; [16]): ≥ 20 µM
Kd (HLA-B*40:01; [16]): ≥ 20 µM
Kd (HLA-A*02:01; [16]): ≥ 20 µM
Kd (HLA-B*44:02; [16]): ≥ 20 µM
Kd (HLA-A*69:01; [16]): ≥ 20 µM
Kd (HLA-B*46:01; [16]): ≥ 20 µM
Kd (HLA-A*24:02; [16]): ≥ 20 µM
Kd (HLA-A*01:01 [3]; [16]): ≥ 20 µM
Kd (HLA-B*18:01 [8]): ≥ 20 µM
Kd (HLA-B*58:01; [16]): ≥ 20 µM
Kd (HLA-B*08:02; [17]): ≥ 20 µM
Kd (HLA-A*03:01; [16]): ≥ 20 µM

LMAEDLANV
Kd (HLA-B*15:01 [1]; [18]): 7.69 µM
Kd (HLA-B*08:01; [18]): ≥ 20 µM
Kd (HLA-A*11:01; [18]): ≥ 20 µM
Kd (HLA-A*26:01; [18]): ≥ 20 µM
Kd (HLA-B*27:05; [18]): ≥ 20 µM
Kd (HLA-A*31:01; [18]): 2.58 µM
Kd (HLA-B*07:02; [18]): ≥ 20 µM
Kd (HLA-B*40:01; [18]): ≥ 20 µM
Kd (HLA-A*24:03; [18]): 11.4 µM
Kd (HLA-A*02:01; [18]): 0.0472 µM
Kd (HLA-A*69:01; [18]): 0.0168 µM
Kd (HLA-A*01:01 [3]; [18]): ≥ 20 µM
Kd (HLA-B*58:01; [18]): ≥ 20 µM
Kd (HLA-A*03:01; [18]): ≥ 20 µM
Kd (HLA-A*02:12): ≤ 0.0001 µM
Kd (HLA-A*02:11 [9]): ≤ 0.0001 µM
Kd (HLA-A*02:03; [19]): ≤ 0.0001 µM
Kd (HLA-A*02:06; [19]): ≤ 0.0001 µM

RELVRKTRF
Kd (HLA-B*15:01 [1]; [11]): 1.58 µM
Kd (HLA-B*08:01; [20]): ≥ 20 µM
Kd (HLA-A*11:01; [20]): ≥ 20 µM
Kd (HLA-A*26:01; [21]): ≥ 20 µM
Kd (HLA-B*27:05; [20]): ≥ 20 µM
Kd (HLA-A*31:01; [20]): ≥ 20 µM
Kd (HLA-B*07:02; [20]): ≥ 20 µM
Kd (HLA-B*40:01; [11]): 0.35 µM
Kd (HLA-A*02:01; [20]): ≥ 20 µM
Kd (HLA-A*69:01; [20]): ≥ 20 µM
Kd (HLA-B*46:01; [20]): ≥ 20 µM
Kd (HLA-A*24:02; [20]): ≥ 20 µM
Kd (HLA-A*01:01 [3]; [20]): ≥ 20 µM
Kd (HLA-B*15:09; [21]): ≥ 20 µM
Kd (HLA-B*58:01; [20]): ≥ 20 µM
Kd (HLA-A*03:01; [20]): ≥ 20 µM

YNDWEGNEL
Kd (HLA-A*02:11 [10]): ≥ 20 µM
Kd (HLA-B*39:01): 0.598 µM
Kd (HLA-C*05:01; source organism: Bacillus anthracis str. A0193): 0.095 µM
Kd (HLA-B*15:09; source organism: Bacillus cereus NVH0597-99): 3.92 µM

KAVRGDLNF
Kd (HLA-B*15:01 [1]; [11]): 0.929 µM
Kd (HLA-B*08:01; [22]): ≥ 20 µM
Kd (HLA-A*11:01; [22]): ≥ 20 µM
Kd (HLA-B*27:05; [22]): ≥ 20 µM
Kd (HLA-A*31:01; [22]): ≥ 20 µM
Kd (HLA-B*07:02; [22]): ≥ 20 µM
Kd (HLA-B*40:01; [22]): ≥ 20 µM
Kd (HLA-A*02:01; [22]): ≥ 20 µM
Kd (HLA-B*44:02; [22]): ≥ 20 µM
Kd (HLA-A*69:01; [22]): ≥ 20 µM
Kd (HLA-A*24:02; [22]): ≥ 20 µM
Kd (HLA-A*01:01 [3]; [22]): ≥ 20 µM
Kd (HLA-B*58:01; [22]): 0.093 µM
Kd (HLA-B*08:02; source organism: Influenza A virus(A/swine/Shandong/fZC/2003(H9N2))): ≥ 20 µM
Kd (HLA-A*03:01; [22]): ≥ 20 µM
